Test results reported in patent publication US5942405A, “Therapeutic and screening methods using C3a receptor and C3a” (priority 1997, dated 1999).

Target: T1, C3a Receptor (Homo sapiens, UniProt Q16581)
T1 sequence (Q16581 1-482 F151C): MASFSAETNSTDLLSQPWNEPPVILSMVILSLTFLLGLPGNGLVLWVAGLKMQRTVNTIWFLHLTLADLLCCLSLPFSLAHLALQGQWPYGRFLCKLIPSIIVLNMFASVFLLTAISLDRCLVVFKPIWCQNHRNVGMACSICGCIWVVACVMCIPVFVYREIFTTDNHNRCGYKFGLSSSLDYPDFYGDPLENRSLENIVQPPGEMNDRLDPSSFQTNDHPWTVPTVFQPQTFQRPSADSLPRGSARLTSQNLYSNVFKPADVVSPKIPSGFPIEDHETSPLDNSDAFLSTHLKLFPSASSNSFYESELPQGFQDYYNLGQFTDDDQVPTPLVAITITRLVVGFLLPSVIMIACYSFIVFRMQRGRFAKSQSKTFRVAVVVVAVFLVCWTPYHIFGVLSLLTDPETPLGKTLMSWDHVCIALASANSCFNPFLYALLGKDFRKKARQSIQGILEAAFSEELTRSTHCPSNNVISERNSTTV
Experiment: Electrophysiological response (Ca2+ mediated chloride currents, two electrode voltage clamp) of Xenopus oocytes injected with C3a Receptor cRNA
Type: cell-based
Design: cDNA encoding a complete orphan GPCR of 482 amino acids; expressed in transfected cells; host or cells: Xenopus laevis oocytes microinjected with cRNA, with or without U937 total RNA
Settings: for electrophysiological response of oocytes expressing C3a Receptor: oocytes co-injected with C3a Receptor cRNA (10 ng) and U937 RNA (25 ng), ligands 10 nM; for electrophysiological response of oocytes injected with C3a Receptor cRNA or U937 RNA alone: 10 nM ligand
Description: (A) Electrophysiological response of Xenopus oocytes injected with cRNA for C3a Receptor (10 ng), total U937 RNA (25 ng), or a mixture of C3a Receptor (10 ng) and U937 RNA (25 ng) to 10 nM rC5a, 10 nM C3a analogue peptide, 10 nM platelet activating factor (PAF), 10 nM fMetLeuPhe. Inset, represents typical response of oocytes co-injected with C3a Receptor cRNA+U937 RNA to 10 nM C3a. (B) Electrophysiological response of oocytes injected with C5a-R cRNA (10 ng), U937 RNA (25 ng) or a mixture of C5a-R and U937 RNA, to 10 nM rC5a or 10 nM C3a analogue peptide. […] Calcium mobilization by Fura 2 loaded cells expressing C5a receptor (FIGS. 4A & 4C) or C3a Receptor (FIGS. 4B & 4D) in response to rC5a (10 nM, FIG. 4A or 100 nM, FIG. 4B) or C3a analogue peptide (1 uM, FIGS. 4C & 4D).
Capped cRNA transcripts were generated from linearized C3a Receptor and C5a-R plasmid DNA as previously described (Kumar, C. S., et al (1989) J. Biol. Chem. 264, 17939-17946) and suspended in sterile water at a concentration of 0.2 μg/μl. Ovarian lobes were surgically removed from adult female Xenopus laevis frogs and defolliculated Stage V oocytes were harvested by manual dissection (Smith, L. D., et al (1991) Methods in Cell Biology, 36, 45-54. Edited by B. K. Kay and H. B. Peng, Academic Press Inc., New York.). Oocytes were microinjected with C3a Receptor or C5a-R cRNA transcripts (10 ng/oocyte) with or without U937 total RNA (25 ng/oocyte) in a 50 nl volume using a Drummond microinjection apparatus and maintained in modified Barth's saline (Power, C. A., et al (1995) J. Biol. Chem., 270,19495-19500 ) at 18° C. Electrophysiological recordings from an average of 10 oocytes were made 48 h later at room temperature using the two electrode voltage clamp (Warner Instruments) technique. Membrane potentials were routinely clamped at -60 mV. Results represent average response determined in three separate experiments.
The chemotactic receptors for C5a and the fMLP-R have previously been functionally expressed in Xenopus laevis oocytes (Kroll, B., et al (1991) FEBS Lett. 291, 208-210; Murphy, P. M. & McDermott, D. (1991) J Biol. Chem. 266, 12560-12567; Murphy, P. M., Gallin, E. K., and Tiffany, H. L. (1990) J Immunol. 145, 2227-2234; Schultz, P., et al (1992) Cellular Signalling 4, 153-161) and, unlike all other GPCRs tested in this system, injection of cRNA for the cloned chemotactic receptors alone is insufficient to stimulate signal transduction in response to ligand binding (Kroll, B., et al (1991) FEBS Lett. 291, 208-210; Murphy, P. M. & McDermott, D. (1991) J Biol. Chem. 266, 12560-12567). Functional expression of both of these chemotactic receptors, as monitored by induction of Ca^2+ mediated chloride currents, requires the co-injection of a complimentary human factor which can be supplied by total RNA from myeloid or liver cells (Kroll, B., et al (1991) FEBS Lett. 291, 208-210; Murphy, P. M. & McDermott, D. (1991) J Biol. Chem. 266, 12560-12567). The co-factor is required for receptor-mediated signal transduction but not for expression of the C5a-R or fMLF-R on the surface of the oocytes (Murphy, P. M., et al (1990) J Immunol. 145, 2227-2234). […] Xenopus oocytes were used to functionally characterize C3a Receptor. […] Like the C5a-R and the fMLF-R, the response was dependent on the co-injection of a cofactor present in total HL-60 or U937 RNA. […] (FIG. 3B). Both the C5a-R as well as C3a Receptor elicited in oocytes a promiscuous response to the two anaphylatoxins.

C3a: C3a was purchased from Advanced Research Technologies, San Diego; anaphylatoxin; radioiodinated for binding
electrophysiological response of oocytes expressing C3a Receptor: respond | electrophysiological response of oocytes expressing C3a Receptor (listed as native ligand): elicited similar responses

WWGKKYRASKLGLAR [C3a analogue synthetic peptide, reference compound]
electrophysiological response of oocytes injected with C3a Receptor cRNA or U937 RNA alone: did not elicit any response | electrophysiological response of oocytes expressing C3a Receptor: respond | electrophysiological response of oocytes expressing C3a Receptor (listed as C3a carboxy-terminal analog synthetic peptide): elicited an electrophysiological response

B1: rC5a: Human rC5a was expressed in E. coli and purified to homogeneity (protein, UniProt P01031 678-751, looked up)
C5a anaphylatoxin: TLQKKIEEIAAKYKHSVVKKCCYDGACVNNDETCEQRAARISLGPRCIKAFTECCVVASQLRANISHKDMQLGR
modifications: C5a anaphylatoxin recombinant, E. coli
notes: Human rC5a was expressed in E. coli and purified to homogeneity
electrophysiological response of oocytes injected with C3a Receptor cRNA or U937 RNA alone: did not elicit any response | electrophysiological response of oocytes expressing C3a Receptor (listed as C5a): respond
